# B1: unnamed (parent)
# chain 1: GEGQQHHLGGAKQAGDV
# chain 2: GTDITNQLTNVTVGIDSGTTVYPHQAGYVKLNYGFSVPNSAVKGDTFKITVPKELNLNGVTSTAKVPPIMAGDQVLANGVIDSDGNVIYTFTDYVNTKDDVKATLTMPAYIDPENVKKTGNVTLATGIGSTTANKTVLVDYEKYGKFYNLSIKGTIDQIDKTNNTYRQTIYVNPSGDNVIAPVLTGNLKPNTDSNALIDQQNTSIKVYKVDNAADLSESYFVNPENFEDVTNSVNITFPNPNQYKVEFNTPDDQITTPYIVVVNGHIDPNSKGDLALRSTLYGYNSNIIWRSMSWDNEVAFNNGSGSGDGIDKPVVP
# Variants of: B1
# Test: solid-phase competition (inhibition) assay
# Settings: with partner chain of the complex shown;; read off a plot
row,Variant,response (Absorbance (405 nm))
1,chain 1 G9A,0.21
2,chain 1 G10A,0.25
3,chain 1 Q5A,0.23
4,chain 1 Q13A,0.29
5,chain 1 G1A,0.25
6,chain 1 G15A,0.28
7,chain 1 Q4A,0.2
8,chain 1 L8A,0.15
9,chain 1 A11S,0.11
10,chain 1 E2A,0.21
11,chain 1 K12A,0.23
12,chain 1 V17A,0.13
13,chain 1 H6A,0.31
14,chain 1 H7A,0.28
15,chain 1 A14S,0.29
16,chain 1 G3A,0.2

# — paper PMC2582960, “A Structural Model of the Staphylococcus aureus ClfA–Fibrinogen Interaction Opens New Avenues for the Design of Anti-Staphylococcal Therapeutics” (PLoS Pathogens, 2008)
